Data published in the supplement of paper PMC10567573.

B1: ZNF24 (parent)
chain: THTKEQILELVVLEQFVAILPKEL

Variants of: B1
Test: protein stability index of a GFP-peptide fusion (GPS, HEK-293T) (PSI 1-6); higher = more stable
Conditions: c terminus: a fixed tail appended
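Also: lentivirally expressed fusions sorted by FACS into six bins by GFP to DsRed ratio, PSI derived from sequencing read proportions per bin multiplied by bin number.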

Row | Variant | protein stability index
1 | THTKEQILELVVLEQFVAILMKEL [P21M] | 3.76
2 | THTKEQILELVVLEQFVAILKKEL [P21K] | 3.31
3 | THTKEQILELVVLEQFVAILLKEL [P21L] | 2.44
4 | THTKEQILELVVLEQFVAILFKEL [P21F] | 1.92
5 | THTKEQILELVVLEQFVAILTKEL [P21T] | 2.57
6 | THTKEQILELVVLEQFVAILNKEL [P21N] | 3.62
7 | THTKEQILELVVLEQFVAILHKEL [P21H] | 3.6
8 | THTKEQILELVVLEQFVAILDKEL [P21D] | 4.16
9 | THTKEQILELVVLEQFVAILGKEL [P21G] | 2.21
10 | THTKEQILELVVLEQFVAILQKEL [P21Q] | 2.66
11 | THTKEQILELVVLEQFVAILSKEL [P21S] | 1.42
12 | THTKEQILELVVLEQFVAILWKEL [P21W] | 3.12
13 | THTKEQILELVVLEQFVAILRKEL [P21R] | 3.28
14 | THTKEQILELVVLEQFVAILEKEL [P21E] | 2.23
15 | THTKEQILELVVLEQFVAILVKEL [P21V] | 2.28
16 | THTKEQILELVVLEQFVAILIKEL [P21I] | 1.92
17 | THTKEQILELVVLEQFVAILAKEL [P21A] | 3.78
18 | THTKEQILELVVLEQFVAILYKEL [P21Y] | 3.02
19 | THTKEQILELVVLEQFVAILCKEL [P21C] | 3.76
20 | THTKEQILELVVYEQFVAILPKEL [L13Y] | 2.88
21 | THTKEQILELVVDEQFVAILPKEL [L13D] | 2.29
22 | THTKEQILELVVTEQFVAILPKEL [L13T] | 2.77
23 | THTKEQILELVVFEQFVAILPKEL [L13F] | 2.47
24 | THTKEQILELVVQEQFVAILPKEL [L13Q] | 2.34

Row | Variant | protein stability index
25 | THTKEQILELVVREQFVAILPKEL [L13R] | 1.85
26 | THTKEQILELVVNEQFVAILPKEL [L13N] | 1.73
27 | THTKEQILELVVPEQFVAILPKEL [L13P] | 2.42
28 | THTKEQILELVVAEQFVAILPKEL [L13A] | 1.51
29 | THTKEQILELVVIEQFVAILPKEL [L13I] | 3.27
30 | THTKEQILELVVMEQFVAILPKEL [L13M] | 2.18
31 | THTKEQILELVVGEQFVAILPKEL [L13G] | 1.84
32 | THTKEQILELVVHEQFVAILPKEL [L13H] | 1.76
33 | THTKEQILELVVCEQFVAILPKEL [L13C] | 1.98
34 | THTKEQILELVVEEQFVAILPKEL [L13E] | 1.9
35 | THTKEQILELVVSEQFVAILPKEL [L13S] | 1.55
36 | THTKEQILELVVKEQFVAILPKEL [L13K] | 1.69
37 | THTKEQILELVVWEQFVAILPKEL [L13W] | 2.67
38 | THTKEQILELVVLHQFVAILPKEL [E14H] | 2.94
39 | THTKEQILELVVLGQFVAILPKEL [E14G] | 3.21
40 | THTKEQILELVVLRQFVAILPKEL [E14R] | 2.95
41 | THTKEQILELVVLDQFVAILPKEL [E14D] | 2.24
42 | THTKEQILELVVLMQFVAILPKEL [E14M] | 2.67
43 | THTKEQILELVVLWQFVAILPKEL [E14W] | 3.05
44 | THTKEQILELVVLTQFVAILPKEL [E14T] | 2.64
45 | THTKEQILELVVLVQFVAILPKEL [E14V] | 1.16
46 | THTKEQILELVVLNQFVAILPKEL [E14N] | 3.68
47 | THTKEQILELVVLPQFVAILPKEL [E14P] | 2.12
48 | THTKEQILELVVLFQFVAILPKEL [E14F] | 2.48

Row | Variant | protein stability index
49 | THTKEQILELVVLLQFVAILPKEL [E14L] | 2.05
50 | THTKEQILELVVLAQFVAILPKEL [E14A] | 2.14
51 | THTKEQILELVVLQQFVAILPKEL [E14Q] | 2.97
52 | THTKEQILELVVLCQFVAILPKEL [E14C] | 2.45
53 | THTKEQILELVVLSQFVAILPKEL [E14S] | 2.53
54 | THTKEQILELVVLKQFVAILPKEL [E14K] | 2.61
55 | THTKEQILELVVLYQFVAILPKEL [E14Y] | 3.47
56 | THTKEQILELVVLIQFVAILPKEL [E14I] | 3.12
57 | THTKEQILELVVLEQNVAILPKEL [F16N] | 2.21
58 | THTKEQILELVVLEQWVAILPKEL [F16W] | 2.54
59 | THTKEQILELVVLEQQVAILPKEL [F16Q] | 2.01
60 | THTKEQILELVVLEQVVAILPKEL [F16V] | 2.02
61 | THTKEQILELVVLEQEVAILPKEL [F16E] | 2.03
62 | THTKEQILELVVLEQRVAILPKEL [F16R] | 1.99
63 | THTKEQILELVVLEQKVAILPKEL [F16K] | 1.95
64 | THTKEQILELVVLEQCVAILPKEL [F16C] | 1.77
65 | THTKEQILELVVLEQIVAILPKEL [F16I] | 1.43
66 | THTKEQILELVVLEQSVAILPKEL [F16S] | 2.27
67 | THTKEQILELVVLEQGVAILPKEL [F16G] | 1.69
68 | THTKEQILELVVLEQYVAILPKEL [F16Y] | 1.76
69 | THTKEQILELVVLEQDVAILPKEL [F16D] | 2.33
70 | THTKEQILELVVLEQAVAILPKEL [F16A] | 1.91
71 | THTKEQILELVVLEQPVAILPKEL [F16P] | 1.94
72 | THTKEQILELVVLEQLVAILPKEL [F16L] | 3.14

Row | Variant | protein stability index
73 | THTKEQILELVVLEQMVAILPKEL [F16M] | 2.5
74 | THTKEQILELVVLEQTVAILPKEL [F16T] | 1.82
75 | THTKEQILELVVLEQHVAILPKEL [F16H] | 2.13
76 | THTKEQILELVVLEQFVAIKPKEL [L20K] | 1.63
77 | THTKEQILELVVLEQFVAIHPKEL [L20H] | 1.67
78 | THTKEQILELVVLEQFVAIQPKEL [L20Q] | 3.05
79 | THTKEQILELVVLEQFVAITPKEL [L20T] | 2.44
80 | THTKEQILELVVLEQFVAICPKEL [L20C] | 2.24
81 | THTKEQILELVVLEQFVAIAPKEL [L20A] | 3.07
82 | THTKEQILELVVLEQFVAIPPKEL [L20P] | 2.78
83 | THTKEQILELVVLEQFVAIMPKEL [L20M] | 1.95
84 | THTKEQILELVVLEQFVAISPKEL [L20S] | 2.33
85 | THTKEQILELVVLEQFVAIFPKEL [L20F] | 2.83
86 | THTKEQILELVVLEQFVAIDPKEL [L20D] | 2.6
87 | THTKEQILELVVLEQFVAIWPKEL [L20W] | 4.08
88 | THTKEQILELVVLEQFVAIEPKEL [L20E] | 2.23
89 | THTKEQILELVVLEQFVAIIPKEL [L20I] | 3.78
90 | THTKEQILELVVLEQFVAIGPKEL [L20G] | 1.94
91 | THTKEQILELVVLEQFVAIVPKEL [L20V] | 2.19
92 | THTKEQILELVVLEQFVAIRPKEL [L20R] | 2.61
93 | THTKEQILELVVLEQFVAINPKEL [L20N] | 1.83
94 | THTKEQILELVVLEQFVAIYPKEL [L20Y] | 1.46
